For assay [1], the target named is RepSTK1, core domain of the replication initiator protein of cryptic plasmid pSTK1 from Geobacillus stearothermophilus (residues 1-269) (Geobacillus stearothermophilus). Description: crystal structure; RepSTK1 crystals, space group P2(1)2(1)2(1), four molecules per asymmetric unit; protein dialysed against 50 mM Tris-HCl pH 7.5, 700 mM KCl; grown at 294 K as described in ref. 27; data at 100 K.

Assay [2] has as its target RepDN, chimera of the 21 kDa fragment of RepD fused to the 14 kDa fragment of RepN (residues 35-314) (Staphylococcus aureus) (UniProt P03065). Description: crystal structure.
The target of assay [3] is RepDE, chimera of the 21 kDa fragment of RepD fused to the 14 kDa fragment of RepE (residues 35-314) (Staphylococcus aureus) (UniProt P03065). Description: crystal structure.

For orientation: stoichiometry N means a count of units in the complex or per binding partner. Turning to “RepSTK1, core domain of the replication initiator protein of cryptic plasmid pSTK1 from Geobacillus stearothermophilus (residues 1-269) (domain or fragment)”, the stoichiometry N in assay [1] was 2.

In the case of “RepDN, chimera of the 21 kDa fragment of RepD fused to the 14 kDa fragment of RepN (residues 35-314) (from UniProt P03065;P19529)”, the stoichiometry N in assay [2] is 2.

For “RepDE, chimera of the 21 kDa fragment of RepD fused to the 14 kDa fragment of RepE (residues 35-314) (from UniProt P03065;P12053)”, in assay [3], the stoichiometry N stood at 2.
